In paper PMC2821926, “Carboxy Terminal Tail of Polycystin-1 Regulates Localization of TSC2 to Repress mTOR” (PLoS ONE, 2010):

Biological target: T1, GST-14-3-3β (UniProt P31946 1-246)
T1 construct: 14-3-3 beta; also called 14-3-3 proteins; source: E. coli DH5α (pGEX), batch-purified on glutathione Sepharose 4B beads
T1 sequence (looked up): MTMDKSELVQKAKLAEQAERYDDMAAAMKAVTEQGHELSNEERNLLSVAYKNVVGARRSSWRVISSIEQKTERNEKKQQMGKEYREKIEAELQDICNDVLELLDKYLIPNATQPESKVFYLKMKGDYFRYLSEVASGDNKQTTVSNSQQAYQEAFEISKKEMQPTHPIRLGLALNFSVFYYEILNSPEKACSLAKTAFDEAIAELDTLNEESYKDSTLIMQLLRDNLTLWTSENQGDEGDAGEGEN
Assay: pull-down; 10 µg GST-14-3-3β on glutathione Sepharose 4B beads mixed with 300 µg protein of lysates of HEK-293 cells expressing CD44-CP1 or Flag-CP1, overnight at 4°C; washed thrice in PBS; immunoblot with anti-TSC2
Conditions: one partner purified

fold enhanced binding in Flag-CP1 expressing cells relative to cells expressing CD44-CP1: ~2 fold
B1: tuberous sclerosis complex 2 (TSC2) tumor suppressor (natural protein)
chain: not shown
notes: TSC2 (tuberin), endogenous in HEK-293 cells; also called tuberin; source: endogenous, HEK-293 lysate
